For this assay, the target named is tubulin heterodimer (porcine/bovine brain tubulin) (not stated (porcine or bovine brain)) (UniProt Q6B856). Briefly: ITC; PN2-3 proteins/peptides titrated into tubulin in the cell; 15 °C; 1xBRB80 (80 mM PIPES-K, 1 mM MgCl2, 1 mM EGTA, pH 6.8); one set of binding sites model; tubulin 9 μM for wild type and mutant PN2-3.

B1: PN2-3C peptide (PN2-3's C-terminus, aa 372-394 of CPAP) (peptide)
peptide: KQPFLKRGEGLARFTNAKSKFQK
For the molecule B1, the Kd was determined as 4.8 µM.

The term Kd denotes the concentration at which binding is half-saturated.

For the origin of these results see PMC4912634.
